From US20160369268 come the findings set out here.

What all share (experiment): cell_activity
Data set [1] relates to TALETRE#4-KRAB (synthetic (Xanthomonas TALE)). Particulars: 50 ng, against TALETRE#4-VP16-induced AmCyan.
For data set [2], the system named is TALETRE#3-KRAB (synthetic (Xanthomonas TALE)). Particulars: 50 ng, against TALETRE#4-VP16-induced AmCyan.
Data set [3] has as its system TALECMV-KRAB (synthetic (Xanthomonas TALE)). Particulars: 100 ng, CMV-mKate-PEST in HEK293; only 19% on TRE/CMVmin AmCyan at 50 ng.

In data set [1], “ATCAGTGATAGAGAAC (double strand) [TRE target of TALETRE#4]” returned an activity of 80 % repression.

The sequence “CCCTATCAGTGAT (double strand) [TRE target of TALETRE#3]” displayed an activity in data set [2] of 84 % repression.

Consider “CTATATAAGCAGAGCT (double strand) [CMV TATA box region target]”, for which, in data set [3], the activity came to 93 % repression.
